This note sets out measurements from publication PMC10298792, “Structural basis for proapoptotic activation of Bak by the noncanonical BH3-only protein Pxt1” (PLOS Biology, 2023).

B2: C-terminal His6-tagged human Bak (residues 23–185;C166S) (domain or fragment, UniProt Q16611 23-185, looked up)
chain: SEEQVAQDTEEVFRSYVFYRHQQEQEAEGVAAPADPEMVTLPLQPSSTMGQVGRQLAIIGDDINRRYDSEFQTMLQHLQPTAENAYEYFTKIATSLFESGINWGRVVALLGFGYRLALHVYQHGLTGFLGQVTRFVVDFMLHHSIARWIAQRGGWVAALNLGN
notes: also called recombinant Bak; source: E. coli BL21(DE3) RIL, purified (Ni-NTA, Superdex 75 gel filtration); not shown: His6, C-terminal, kept

The target of series [1] is B2. In words: ITC; Pxt1 peptide (0.8 mM) titrated into 80 μM recombinant Bak; no detergent; performed as in ref. 27. The settings on record: both partners purified. (In ITC the heat of successive injections is recorded.)
Series [2] concerns the molecule itself. Kind of series: SEC; 100 μM Bak, 1 mM Pxt1 BH3 peptide and 1% CHAPS; Superdex 75 10/300 GL. Background: In gel filtration, larger molecules generally elute earlier.
The target of series [3] is T1, recombinant human Bax (residues 1–172;C62S·C126S) (human, UniProt Q07812 1-172, C62S | C126S).
T1 construct: Bax, human, residues 1-172 with C62S and C126S, cloned into pET21a-m1; also called recombinant Bax; source: E. coli BL21(DE3) RIL, purified (Ni-NTA, Superdex 75 gel filtration)
In words: SEC; separately purified proteins mixed at a molar ratio of 1:3, incubated for 1 h; Superdex 200 increase 10/300 GL; no detergent; peak fractions on SDS–PAGE. The note with it: both partners purified.

T1 sequence (Q07812 1-172 C62S/C126S): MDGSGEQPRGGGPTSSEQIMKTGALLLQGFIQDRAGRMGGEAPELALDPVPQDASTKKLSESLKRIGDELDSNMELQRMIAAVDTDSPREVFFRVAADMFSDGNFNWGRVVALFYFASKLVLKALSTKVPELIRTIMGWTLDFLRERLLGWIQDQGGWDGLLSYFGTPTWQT

B1: synthetic human Pxt1(76–101) peptide (peptide, UniProt Q8NFP0 76-101, looked up)
peptide: EEIIHKLAMQLRHIGDNIDHRMVRED
notes: Pxt1, human, residues 76-101; also called human Pxt1 BH3; Pxt1 BH3 peptide; source: synthetic peptide (Peptron, Korea)
Broadly, the Kd is the constant that tells how readily two partners part at equilibrium. In the case of B1, the Kd in series [1] came out at 15.4 µM.
What is called stoichiometry N is the number of molecules, sites or subunits per partner or assembly. With B2, in series [2], the “stoichiometry N” value was 2.

B3: human Pxt1(76–101) BH3 fragment, separately purified, as mixed with recombinant Bax (peptide, UniProt Q8NFP0 76-101, looked up)
chain: EEIIHKLAMQLRHIGDNIDHRMVRED
notes: Pxt1, human, BH3 domain, residues 76-101, cloned into pET21a-m2; it is surmised to be the recombinant pET21a-m2 product and not the synthetic peptide; also called Pxt1 BH3 fragment; human Pxt1 BH3 domain; source: separately purified (the recombinant construct was made in E. coli BL21(DE3) RIL)
As for B3, in series [3], the binding result is “binds”.
